Assay results as given in publication PMC10132971.
One block for each substance: values may come before it.

How the values were obtained:
[1] = biological target: Smc5/6 hexameric complex lacking Nse5/6 (S. cerevisiae) (UniProt Q08204)
[2] = biological target: Smc5/6 hexameric complex lacking Nse5/6 (S. cerevisiae) (UniProt Q08204); assay: mass photometry; 10 nM hexamer with 10 nM purified Nse5/6 (1:1) and 5 nM 200 bp DNA, no ATP; 40 mM Tris-HCl pH 7.5, 100 mM potassium glutamate, 7.5 mM MgCl2, 30 °C for 10 min; conditions: remark: other sources report otherwise
[3] = biological target: Smc5/6 hexameric complex lacking Nse5/6 (S. cerevisiae) (UniProt Q08204); assay: mass photometry; 10 nM complex with 5 nM 200 bp linear double-stranded DNA, no ATP; 40 mM Tris-HCl pH 7.5, 100 mM potassium glutamate, 7.5 mM MgCl2, 30 °C for 10 min; monomer to dimer of complexes; conditions: remark: other sources report otherwise
[4] = biological target: Smc5/6 octamer (WT, with Nse5/6) (Saccharomyces cerevisiae (W303)) (UniProt Q08204+Q12749+Q07913+P38632+Q05541+P43124+Q03718+P40026); assay: single-molecule fluorescence; conditions: 1 M NaCl wash after 1 h incubation; nonlooping complexes, n=481; both ends tethered to surface; Mass photometry: 40 mM Tris-HCl pH 7.5, 100 mM K-glutamate, 7.5 mM MgCl2, 30 C, 10 nM protein, 5 nM DNA; single-molecule: 2 nM Smc5/6, imaging buffer with …
[5] = biological target: Smc5/6 hexamer (lacking Nse5/6) (Saccharomyces cerevisiae (W303)) (UniProt Q08204+Q12749+Q07913+P38632+Q05541+P43124); assay: single-molecule fluorescence; conditions: 1 M NaCl wash; both ends tethered to surface; Mass photometry: 40 mM Tris-HCl pH 7.5, 100 mM K-glutamate, 7.5 mM MgCl2, 30 C, 10 nM protein, 5 nM DNA; single-molecule: 2 nM Smc5/6, imaging buffer with …
[6] = biological target: Smc5/6 octameric complex with Nse4-6xHis-SNAP labelled with Alexa 647 (S. cerevisiae) (UniProt Q08204); assay: single-molecule fluorescence, counting of photobleaching steps; Alexa 647-labelled complex (2 nM unless stated otherwise) on surface-tethered lambda-DNA; 40 mM Tris-HCl pH 7.5, 100 mM NaCl, 7.5 mM MgCl2, 2 mM ATP, 30 °C; loop-extruding complexes
[7] = biological target: Smc5/6 hexameric complex lacking Nse5/6 with Nse4-6xHis-SNAP labelled with Alexa 647 (S. cerevisiae) (UniProt Q08204); assay: as above; conditions: remark: other sources report otherwise
[8] = biological target: Smc5/6 octameric complex with Nse2-6xHis-SNAP labelled with Alexa 647 (S. cerevisiae) (UniProt Q08204); assay: as above

looping probability of DNA with the hexamer compared with the WT octamer [1]: 15 fold
dimers, percent of total counts, with Nse5/6 added 1:1 [2]: 3%
dimers, percent of normalized population [3]: 40%
dimers, percent of total counts [3]: 25%
Substance: Smc5/6 hexameric complex lacking Nse5/6, Q08204 1-1093; Q12749 1-1114; Q07913 1-336; P38632 1-267; Q05541 1-303; P43124 1-402

Substance: lambda DNA, 48.5 kbp (48,502 bp)
binding signal (% remaining bound after high-salt wash) [4]: 7
binding signal (% remaining bound after high-salt wash) [5]: 0

dimer fraction [6]: 100%
stoichiometry N [6]: 2
Substance: Smc5/6 octameric complex with Nse4-6xHis-SNAP labelled with Alexa 647 (from UniProt Q08204 1-1093; Q12749 1-1114; Q07913 1-336; P38632 1-267; Q05541 1-303; P43124 1-402; Q03718 1-556)

stoichiometry N [7]: 2
Substance: Smc5/6 hexameric complex lacking Nse5/6 with Nse4-6xHis-SNAP labelled with Alexa 647, Q08204 1-1093; Q12749 1-1114; Q07913 1-336; P38632 1-267; Q05541 1-303; P43124 1-402

stoichiometry N [8]: 2
Substance: Smc5/6 octameric complex with Nse2-6xHis-SNAP labelled with Alexa 647 (from UniProt Q08204 1-1093; Q12749 1-1114; Q07913 1-336; P38632 1-267; Q05541 1-303; P43124 1-402; Q03718 1-556)
